According to PMC3237003 (Toxins, 2011):

Legend:
[1] = target: T1, staphylococcal enterotoxin B (SEB) (Staphylococcus aureus, strain , UniProt P01552); assay: Luminex direct binding (microsphere fluorescence immunoassay); conditions: both partners purified
T1 construct: source: bought: Toxin Technology, Inc

[2] = target: bovine serum albumin (BSA) (Bos taurus, UniProt P02769); assay: as above; conditions: both partners purified
bovine serum albumin (BSA), sequence (P02769 25-607): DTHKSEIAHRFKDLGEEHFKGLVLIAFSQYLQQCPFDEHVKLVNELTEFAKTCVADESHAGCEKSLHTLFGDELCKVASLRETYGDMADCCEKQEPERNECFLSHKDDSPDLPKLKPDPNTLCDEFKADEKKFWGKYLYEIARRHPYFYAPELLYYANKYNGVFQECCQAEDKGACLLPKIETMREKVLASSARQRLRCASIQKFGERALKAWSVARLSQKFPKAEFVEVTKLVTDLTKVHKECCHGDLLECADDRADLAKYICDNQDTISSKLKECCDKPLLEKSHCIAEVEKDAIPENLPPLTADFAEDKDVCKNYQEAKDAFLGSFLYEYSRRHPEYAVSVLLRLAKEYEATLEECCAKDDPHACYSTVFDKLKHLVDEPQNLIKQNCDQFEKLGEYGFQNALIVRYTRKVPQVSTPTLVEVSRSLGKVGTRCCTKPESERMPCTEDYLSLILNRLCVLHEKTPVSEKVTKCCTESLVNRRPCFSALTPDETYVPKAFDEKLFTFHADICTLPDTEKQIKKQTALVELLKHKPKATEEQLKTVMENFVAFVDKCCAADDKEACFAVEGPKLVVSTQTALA

T1 sequence (P01552 28-266): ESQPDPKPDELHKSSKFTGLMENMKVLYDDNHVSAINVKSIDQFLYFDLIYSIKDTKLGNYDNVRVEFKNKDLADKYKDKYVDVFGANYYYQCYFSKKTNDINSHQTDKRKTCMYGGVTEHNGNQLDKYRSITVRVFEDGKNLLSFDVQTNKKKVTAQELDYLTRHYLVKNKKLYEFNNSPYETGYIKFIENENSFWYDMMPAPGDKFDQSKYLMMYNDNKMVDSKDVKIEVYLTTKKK

| Binder | binding result [1] | binding result [2] |
| --- | --- | --- |
| sdAb Abr2 (VHH, source: E. coli Rosetta, soluble sdAb expression vector) VHH: DVQLQASGGGLVQAGGSLVLSCTASGRSVSSLAMGWLRQVPGKERELVGSISLSGGRTYYADSMKGRFTISKDNAKNTVALQMNSLRPEDTAVYYCAARDAARDYAPLNFDTWGQGTQVTVSS | no binding | no binding |
| sdAb Abr1 (VHH, source: E. coli Rosetta, soluble sdAb expression vector) VHH: EVQLQASGGGLVQAGGSLRLSCAASGSDGSLEIMGWYRQAPGKQRELVARATSGGLKNYADSVKGRFTISGDLDKNTVYLQMNSLQPEDTGVYVCHLGVVASTYRDYWGQGTQVTVSS | no binding | no binding |
| sdAb Abr5 (VHH, source: E. coli Rosetta, soluble sdAb expression vector) VHH: EVQLQASGGGLVQAGGSLRLSCVVSGLSVGLNPVAWYRQAPGQQRDWVARMSMRGLTDYPDSLKGRAIISRDNAKNTVSLQMDSLKPEDTAVYFCKVGLSYWGQGTQVTVSS | no binding | no binding |
